Article PMC3135476 (Molecular Biology of the Cell, 2011)
Each block holds one molecule with its values, some of them ahead of it.

Assays:
[1] = molecular target: microtubules (U2OS cells) (human (endogenous in U2OS)) (UniProt P07437); test: co-sedimentation
[2] = molecular target: KRIT1(R452E) FERM domain, residues 417-736 (human, UniProt O00522 417-736, R452E); test: ITC
[3] = molecular target: KRIT1 FERM domain, residues 417-736 (wild type) (human, UniProt O00522 417-736); test: ITC
KRIT1 FERM domain, residues 417-736 (wild type), sequence (O00522 417-736): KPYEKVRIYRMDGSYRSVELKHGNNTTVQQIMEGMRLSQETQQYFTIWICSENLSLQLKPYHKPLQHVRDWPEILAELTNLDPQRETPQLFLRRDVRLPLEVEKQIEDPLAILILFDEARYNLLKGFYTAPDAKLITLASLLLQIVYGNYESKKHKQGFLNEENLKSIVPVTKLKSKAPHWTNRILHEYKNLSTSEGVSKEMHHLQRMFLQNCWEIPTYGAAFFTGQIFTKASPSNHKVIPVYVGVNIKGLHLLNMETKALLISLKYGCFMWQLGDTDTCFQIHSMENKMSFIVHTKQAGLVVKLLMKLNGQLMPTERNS

KRIT1(R452E) FERM domain, residues 417-736, sequence (O00522 417-736 R452E): as the sequence (O00522 417-736) above, with R36E counted along it
microtubules (U2OS cells) (human (endogenous in U2OS)), sequence (P07437 whole entry, looked up, the tested form may be a part): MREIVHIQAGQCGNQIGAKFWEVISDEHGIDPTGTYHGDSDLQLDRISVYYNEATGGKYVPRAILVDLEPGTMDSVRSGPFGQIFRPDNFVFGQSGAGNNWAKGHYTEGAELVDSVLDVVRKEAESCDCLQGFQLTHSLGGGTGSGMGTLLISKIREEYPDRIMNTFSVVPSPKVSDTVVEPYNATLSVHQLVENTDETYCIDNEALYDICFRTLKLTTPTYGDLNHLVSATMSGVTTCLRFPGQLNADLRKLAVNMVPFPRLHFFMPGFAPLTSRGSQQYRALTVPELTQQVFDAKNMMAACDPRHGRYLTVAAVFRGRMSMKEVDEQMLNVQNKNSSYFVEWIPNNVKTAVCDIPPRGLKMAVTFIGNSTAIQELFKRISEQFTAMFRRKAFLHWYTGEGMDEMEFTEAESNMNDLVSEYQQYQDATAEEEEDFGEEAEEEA

fold increase in association with microtubules over wild-type KRIT1 [1]: 8 fold
Molecule: GFP-fused KRIT1(R452E) (U2OS) (from UniProt O00522 1-736) (natural protein)

Kd [2]: 67 ± 18.7 µM | Kd [3]: 1.8 ± 0.25 µM
B1: Human Rap1 isoform Rap1B (residues 1-167) bound to GMP-PNP (domain or fragment, UniProt P61224 1-167, looked up)
chain: MREYKLVVLGSGGVGKSALTVQFVQGIFVEKYDPTIEDSYRKQVEVDAQQCMLEILDTAGTEQFTAMRDLYMKNGQGFALVYSITAQSTFNDLQDLREQILRVKDTDDVPMILVGNKCDLEDERVVGKEQGQNLARQWNNCAFLESSAKSKINVNEIFYDLVRQINR
